Experimental data taken from US20080274118A1 (Novartis, published 2008).
One block for each binder: values may come before it.

What was measured:
[1] = target: T1, human CD40, cell-surface (on human B cells, monocytes and other CD40-expressing cells) (human, UniProt P25942 20-277); assay: cell-based or functional assay
[2] = target: T1, human CD40, cell-surface (on human B …); assay: cell-based or functional assay; remark: listed apart in the source
[3] = target: T2, human CD40, soluble or recombinant (ELISA, Biacore) (human, UniProt P25942 21-193, limits assumed); assay: Biacore (method named in paragraph 140)
T2 construct: also called soluble CD40; recombinant CD40
T2 sequence (P25942 21-193 limits assumed): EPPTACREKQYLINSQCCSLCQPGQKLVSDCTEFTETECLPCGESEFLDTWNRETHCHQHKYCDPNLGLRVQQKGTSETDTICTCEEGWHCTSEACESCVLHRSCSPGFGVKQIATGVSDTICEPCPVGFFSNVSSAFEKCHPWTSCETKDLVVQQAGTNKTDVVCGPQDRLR

T1 sequence (P25942 20-277): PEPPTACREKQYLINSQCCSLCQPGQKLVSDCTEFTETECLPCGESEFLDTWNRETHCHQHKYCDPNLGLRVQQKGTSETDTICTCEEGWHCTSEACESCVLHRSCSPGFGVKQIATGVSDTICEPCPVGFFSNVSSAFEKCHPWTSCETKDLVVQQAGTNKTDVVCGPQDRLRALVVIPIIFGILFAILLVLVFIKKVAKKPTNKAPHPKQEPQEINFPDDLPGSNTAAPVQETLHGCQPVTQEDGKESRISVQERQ

MCP-1 secretion, normal B cells, Donor 1 (folds of induction over background) [1]: 5.5 fold
MCP-1 secretion, normal B cells, Donor 3 (folds of induction over background) [1]: 1.7 fold
MIP-1beta secretion, normal B cells, Donor 1 (folds of induction over background) [1]: 2.2 fold
MIP-1beta secretion, normal B cells, Donor 2 (folds of induction over background) [1]: 2.6 fold
MIP-1beta secretion, normal B cells, Donor 3 (folds of induction over background) [1]: 17.8 fold
hIL-6 secretion, normal B cells, Donor 1 (folds of induction over background) [1]: 5.7 fold
hIL-6 secretion, normal B cells, Donor 2 (folds of induction over background) [1]: 3.8 fold
hIL-6 secretion, normal B cells, Donor 3 (folds of induction over background) [1]: 20.5 fold
hIL-8 secretion, normal B cells, Donor 1 (folds of induction over background) [1]: 7.7 fold
hIL-8 secretion, normal B cells, Donor 2 (folds of induction over background) [1]: 14.7 fold
hIL-8 secretion, normal B cells, Donor 3 (folds of induction over background) [1]: 49.3 fold
hIL-10 secretion, normal B cells, Donor 1 (folds of induction over background) [1]: 3.6 fold
hIL-10 secretion, normal B cells, Donor 3 (folds of induction over background) [1]: 3.6 fold
hTNF-alpha secretion, normal B cells, Donor 1 (folds of induction over background) [1]: 3.7 fold
hTNF-alpha secretion, normal B cells, Donor 2 (folds of induction over background) [1]: 4.8 fold
hTNF-alpha secretion, normal B cells, Donor 3 (folds of induction over background) [1]: 22.8 fold
MCP-1 secretion, monocytes, Donor 1 (folds of induction over background) [2]: 290 fold
MIP-1beta secretion, monocytes, Donor 1 (folds of induction over background) [2]: 162 fold
hIL6 secretion, monocytes, Donor 1 (folds of induction over background) [2]: 77.9 fold
hIL8 secretion, monocytes, Donor 1 (folds of induction over background) [2]: 124 fold
hIL-10 secretion, monocytes, Donor 1 (folds of induction over background) [2]: 4.2 fold
hTNF-alpha secretion, monocytes, Donor 1 (folds of induction over background) [2]: 13.8 fold
B1: CD40L on formaldehyde-fixed transfected CHO cells (ligand)
chain: MIETYNQTSPRSAATGLPISMKIFMYLLTVFLITQMIGSALFAVYLHRRLDKIEDERNLHEDFVFMKTIQRCNTGERSLSLLNCEEIKSQFEGFVKDIMLNKEETKKENSFEMQKGDQNPQIAAHVISEASSKTTSVLQWAEKGYYTMSNNLVTLENGKQLTVKRQGLYYIYAQVTFCSNREASSQAPFIASLCLKSPGRFERILLRAANTHSSAKPCGQQSIHLGGVFELQPGASVFVNVTDPSQVSHGTGFTSFGLLKL

Kd [3]: 12 nM
B2: CHIR-5.9 fully human anti-CD40 monoclonal antibody (antibody, V domains shown)
VH: EVQLVQSGAEVKKPGESLKISCKGSGYSFTSYWIGWVRQMPGKGLEWMGIIYPGDSDTRYSPSFQGQVTISADKSISTAYLQWSSLKASDTAMYYCARGTAAGRDYYYYYGMDVWGQGTTVTVSS
VL: AIVMTQPPLSSPVTLGQPASISCRSSQSLVHSDGNTYLNWLQQRPGQPPRLLIYKFFRRLSGVPDRFSGSGAGTDFTLKISRVEAEDVGVYYCMQVTQFPHTFGQGTRLEIKR
notes: also called mAb CHIR-5.9; 131.2F8.5.9

Kd [3]: 0.5 nM
B3: CHIR-12.12 fully human anti-CD40 monoclonal antibody (antibody, V domains shown)
VH: QVQLVESGGGVVQPGRSLRLSCAASGFTFSSYGMHWVRQAPGKGLEWVAVISYEESNRYHADSVKGRFTISRDNSKITLYLQMNSLRTEDTAVYYCARDGGIAAPGPDYWGQGTLVTVSS
VL: DIVMTQSPLSLTVTPGEPASISCRSSQSLLYSNGYNYLDWYLQKPGQSPQVLISLGSNRASGVPDRFSGSGSGTDFTLKISRVEAEDVGVYYCMQARQTPFTFGPGTKVDIRR
notes: also called 153.8E2.D10.D6.12.12
